± gives the standard deviation.
Assay: protein stability index of a GFP-peptide fusion (GPS, HEK-293T) (PSI 1-6); higher = more stable
[1] = treatment: DMSO, c terminus: a fixed tail appended
[2] = treatment: MLN4924 1 uM, 8 h, c terminus: a fixed tail appended
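Further: 24-mer peptide tiles fused after GFP, lentivirally expressed, FACS-sorted into six equal bins by GFP/DsRed ratio, decoded by Illumina sequencing, PSI is the read-weighted mean bin number.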

Sequence | protein stability index [1] | protein stability index [2] | protein stability index (treatment: DMSO, c terminus: native) | protein stability index (treatment: MLN4924 1 uM, 8 h, c terminus: native)
QSFISWTGDGWEFKLADPDEVARR [ETS2] | 3.58 ± 0.1 | 3.76 ± 0.19 | – | –
KLSETFLQIYQYVPKDQRLQAIKA [DLC1] | 2.12 ± 0.38 | 2.28 ± 0.44 | – | –
HRGPSGHTEASAQRSHMGKLKEPQ | 5.1 ± 0.38 | 4.87 ± 0.5 | – | –
LSSAVWPGGETEALTRLERHLERK [CRY1] | 4.44 ± 0.22 | 4.27 ± 0.061 | – | –
NQAAIMELDDTLKYSFLQFDPAPR [PPP2CA] | 3.25 ± 0.17 | 3.38 ± 0.21 | – | –
NLVLSEDRKSVKFVETRLRDLPDT [TRIM39] | 4.31 ± 0.25 | 4.37 ± 0.2 | – | –
AKAPPTACYAGAAPAPSQVKSKAK [CEBPB] | 5.36 ± 0.19 | 5.21 ± 0.2 | – | –
EVVTPDNMCMGRTSRGKLGGQDSF [ETS1] | 3.71 ± 0.16 | 3.87 ± 0.2 | – | –
PGNQAEHGAVTVGGTSVGSLGVPG [ZBTB22] | 4.89 ± 0.25 | 4.75 ± 0.26 | – | –
PVGQEIVIPFKVDTILKYLKDHFS [IQUB] | 2.33 ± 0.73 | 1.95 ± 0.39 | – | –
DVPDLQSVCSCTCYRSQDYGGRSV [KCNK9] | 2.5 ± 0.36 | 2.81 ± 0.67 | – | –
CPAELFTNTRSDLDVFGRGDNISD [LUC7L3] | 4.38 ± 0.26 | 4.65 ± 0.19 | – | –
RRCRRCVCALCPVLGAHRGHPVGL [TRIM14] | 2.54 ± 0.33 | 2.59 ± 0.38 | – | –
WGGKAETERGLSRKHIIEGLKASL [KCNAB2] | 2.26 ± 0.29 | 2.02 ± 0.21 | – | –
LDPDTMHARLRLSADRLTVRCGLL [TRIM14] | 2.51 ± 0.16 | 2.48 ± 0.25 | – | –
GGDLMPAPADPTAREGLAAPPRRL [FCHO1] | 5.19 ± 0.33 | 5.15 ± 0.23 | – | –
SSTTILVQWKEPEEPNGQIQGYRV [PTPRD] | 2.91 ± 0.32 | 2.71 ± 0.46 | – | –
QDRDALHMEGLIVRERILGADNID [FEM1B] | 4.38 ± 0.39 | 4.29 ± 0.28 | – | –

Sequence | protein stability index [1] | protein stability index [2] | protein stability index (treatment: DMSO, c terminus: native) | protein stability index (treatment: MLN4924 1 uM, 8 h, c terminus: native)
PYREDEEGAFGEHGSQGTYSNTKE [MAP2] | 5.66 ± 0.22 | 5.72 ± 0.2 | – | –
ANGTVIAEFILLGLLEAPGLQPVV [OR3A1] | 3.06 ± 0.61 | 2.7 ± 0.35 | – | –
LNGYRLGERVLQVSFKTSKQHKA [ELAVL3] | – | – | 3.16 ± 0.29 | 2.69 ± 0.42
PLLLSHTLQELLARDTVQVELIPE [SNX8] | 2.71 ± 0.23 | 2.73 ± 0.31 | – | –
AGKWRSYKGELFDKTPVLLTDYPV [MYORG] | 2.32 ± 0.21 | 2.43 ± 0.25 | – | –
YYSCERAKKAMGYQPLVTMDDAME [NSDHL] | 3.97 ± 0.34 | 3.71 ± 0.45 | – | –
DYAHGFGNISGEFWLGNEALHSLT [TNXB] | 2.43 ± 0.73 | 2.82 ± 0.57 | – | –
SALEDQGSNPSSSNSSQDSLHKGA [PPFIA4] | 5.48 ± 0.14 | 5.49 ± 0.23 | – | –
HAAHVVCRELGYVEAKSWTASSSY [LOXL2] | 2.31 ± 0.29 | 2.28 ± 0.17 | – | –
PPPAYEPPAPAPLPPPSAPSLQPS [SCAMP3] | 5.04 ± 0.18 | 4.97 ± 0.11 | – | –
SPNTPQPVPEQSALCQGLYFHINQ [FAM104A] | 3 ± 0.15 | 3.16 ± 0.33 | – | –
PCLLGSRVFSQGSHAWEVALGGLQ [TRIM35] | 2.36 ± 0.15 | 2.35 ± 0.19 | – | –
EPMRDQVARTHLTEDTPKVNADIE [NSDHL] | 5.32 ± 0.34 | 5.56 ± 0.075 | – | –
SIKMGKRNGLHLPEQVQNEIKSMK [NLN] | 4.02 ± 0.17 | 3.87 ± 0.55 | – | –
SLRQKQPERLCSGPGIVGNVLVDP [GMPPB] | 3.65 ± 0.2 | 3.46 ± 0.15 | – | –
APSPGVKEQAIWKHPQPAPAVTPD [PKD2L1] | 5.15 ± 0.1 | 5.07 ± 0.13 | – | –
RPQLPQVLQHVRLPLLSPKFLVGT [KLHL20] | 2.8 ± 0.12 | 2.58 ± 0.26 | – | –
VSAIIWEGNECKKMDMSVLEISGI [PHTF1] | 2.11 ± 0.58 | 2.41 ± 0.83 | – | –

Reference: the supplement of paper PMC10567573
